# B1: SARS 3C-like proteinase (SARS-3CLpro), wild type (enzyme)
# chain: SGFRKMAFPSGKVEGCMVQVTCGTTTLNGLWLDDTVYCPRHVICTAEDMLNPNYEDLLIRKSNHSFLVQAGNVQLRVIGHSMQNCLLRLKVDTSNPKTPKYKFVRIQPGQTFSVLACYNGSPSGVYQCAMRPNHTIKGSFLNGSCGSVGFNIDYDCVSFCYMHHMELPTGVHAGTDLEGKFYGPFVDRQTAQAAGTDTTITLNVLAWLYAAVINGDRWFLNRFTTTLNDFNLVAMKYNYEPLTQDHVDILGPLSAQTGIAVLDMCAALKELLQNGMNGRTILGSTILEDEFTPFDVVRQCSGVTFQ
# Target: the molecule itself
# Test: AUC
protein,measurement,value
B1,stoichiometry N,2
